B1: 72E 73V 74A (protein, listed as Rattus norvegicus)
chain: AFDGTWKVDRNENYEKFMEKMGINVVKRKLGAHDNLKLTITQEGNKFTVKESSNFRNIDVVFELGVDFAYSEVAGTELTGTWTMEGNKLVGKFKRVDNGKELIAVREISGNELIQTYTYEGVEAKRIFKKE
modifications: PEPTIDE (1)...(131) wild-type rat intestinal fatty acid binding protein
B2: 72T 73G 74I (protein, listed as Rattus norvegicus)
chain: B1 chain with E72T, V73G, A74I
modifications: PEPTIDE (1)...(131) wild-type rat intestinal fatty acid binding protein
B3: 72S 74A (protein, listed as Rattus norvegicus)
chain: B1 chain with E72S, V73A
modifications: PEPTIDE (1)...(131) wild-type rat intestinal fatty acid binding protein
B4: 14R 18L 31S 73F 117E 72A (protein, listed as Rattus norvegicus)
chain: B1 chain with Y14R, M18L, G31S, E72A, V73F, A74D, Y117E
modifications: PEPTIDE (1)...(131) wild-type rat intestinal fatty acid binding protein
B5: 72T 73I 74A (protein, listed as Rattus norvegicus)
chain: B1 chain with E72T, V73I
modifications: PEPTIDE (1)...(131) wild-type rat intestinal fatty acid binding protein
B6: 14R 18L 73L 117D 72A (protein, listed as Rattus norvegicus)
chain: B1 chain with Y14R, M18L, E72A, V73L, A74D, Y117D
modifications: PEPTIDE (1)...(131) wild-type rat intestinal fatty acid binding protein
B7: 38H 62W 106V 117A 72A (protein, listed as Rattus norvegicus)
chain: B1 chain with L38H, F62W, E72A, V73A, A74D, R106V, Y117A
modifications: PEPTIDE (1)...(131) wild-type rat intestinal fatty acid binding protein
B8: 72A 74N (protein, listed as Rattus norvegicus)
chain: B1 chain with E72A, V73A, A74N
modifications: PEPTIDE (1)...(131) wild-type rat intestinal fatty acid binding protein
B9: 18I 31M 55M 72A (protein, listed as Rattus norvegicus)
chain: B1 chain with M18I, G31M, F55M, E72A, V73A, A74D
modifications: PEPTIDE (1)...(131) wild-type rat intestinal fatty acid binding protein
B10: 72T 74S (protein, listed as Rattus norvegicus)
chain: B1 chain with E72T, V73A, A74S
modifications: PEPTIDE (1)...(131) wild-type rat intestinal fatty acid binding protein
B11: 18I 31Y 72A (protein, listed as Rattus norvegicus)
chain: B1 chain with M18I, G31Y, E72A, V73A, A74D
modifications: PEPTIDE (1)...(131) wild-type rat intestinal fatty acid binding protein
B12: 72A 73P 74E (protein, listed as Rattus norvegicus)
chain: B1 chain with E72A, V73P, A74E
modifications: PEPTIDE (1)...(131) wild-type rat intestinal fatty acid binding protein
B13: 14M 18L 31W 73I 117G 72A (protein, listed as Rattus norvegicus)
chain: B1 chain with Y14M, M18L, G31W, E72A, V73I, A74D, Y117G
modifications: PEPTIDE (1)...(131) wild-type rat intestinal fatty acid binding protein
B14: 72S 73V 74A (protein, listed as Rattus norvegicus)
chain: B1 chain with E72S
modifications: PEPTIDE (1)...(131) wild-type rat intestinal fatty acid binding protein
B15: 18V 31A 55I 72A (protein, listed as Rattus norvegicus)
chain: B1 chain with M18V, G31A, F55I, E72A, V73A, A74D
modifications: PEPTIDE (1)...(131) wild-type rat intestinal fatty acid binding protein
B16: 18I 31Y 73G 72A (protein, listed as Rattus norvegicus)
chain: B1 chain with M18I, G31Y, E72A, V73G, A74D
modifications: PEPTIDE (1)...(131) wild-type rat intestinal fatty acid binding protein

Numbering of substitutions follows the chain as printed.

A short description of one test: Probe fluorescence ratio response to palmitic acid relative to ADIFAB2. It counts as binding. The settings on record: response relative to ADIFAB2. The gist of the method:
(§1)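 Each fatty acid's response was expressed relative to ADIFAB2, the rI-FABP-L72A probe, as ΔR/ΔRreference. ΔR is the change in the background-corrected two-wavelength intensity ratio R=Fλ1/Fλ2 from its analyte-free baseline R0. Emission was read near about 420-480 nm for unbound and about 495-580 nm for FFA-bound probe.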
For B1, the “DR/DR PA” value stood at 0.736.
The same measure, in the same setting: in the case of B2 it was 2.177.
The same measure, in the same setting: as for B3, the figure is 1.615; as for B4, 0.693.
Still for that read-out and setting: as for B5, the figure is 1.687; as for B6, 0.294; as for B7, 1.002.
In the case of B8, the “DR/DR PA” value is listed as 1.308.
The same measure, in the same setting: as for B9, the figure is 1.099; as for B10, 2.209.
Still for that read-out and setting: as for B11, the figure is 1.762; as for B12, 1.732; as for B13, 0.998.
Same read-out and setting: as for B14, the figure is 2.601; as for B15, 1.280; as for B16, 1.886.

The nature of the next test: Probe fluorescence ratio response to oleic acid relative to ADIFAB2. It counts as binding. The settings on record: response relative to ADIFAB2. The method in brief: as §1
As to B1, the “DR/DR OA” value amounted to 0.524.
Still for that read-out and setting: as for B2, the figure is 2.414; as for B3, 1.575.
Same read-out and setting: as for B4, the figure is 1.146; as for B5, 1.721.
Still for that read-out and setting: in the case of B6 it was 0.847; in that of B7, 1.239; in that of B8, 1.629.
In the case of B9, the “DR/DR OA” value was 0.601.
Still for that read-out and setting: in the case of B10 it was 2.252; in that of B11, 2.096; in that of B12, 1.802.
On the same count and under the same terms, in the case of B13 it was 1.712; in that of B14, 2.295; in that of B15, 0.791.
Same read-out and setting: in the case of B16 it was 1.632.

A short description of the next test: Probe fluorescence ratio response to linoleic acid relative to ADIFAB2. It counts as binding. The settings on record: response relative to ADIFAB2. The method in brief:
as §1
In the case of B1, the “DR/DR LA” value came to 0.735.
Still for that read-out and setting: in the case of B2 it was 2.577; in that of B3, 2.037; in that of B4, 1.947.
Still for that read-out and setting: in the case of B5 it was 1.795; in that of B6, 1.766; in that of B7, 1.337.
Same read-out and setting: as for B8, the figure is 1.681.
As to B9, the “DR/DR LA” value is 1.134.
Same read-out and setting: as for B10, the figure is 2.469; as for B11, 2.790.
As to B12, the “DR/DR LA” value worked out at 1.741.
The same measure, in the same setting: in the case of B13 it was 2.034; in that of B14, 2.397.
On the same count and under the same terms, as for B15, the figure is 1.334; as for B16, 2.559.

The next test can be described thus: Probe fluorescence ratio response to palmitoleic acid relative to ADIFAB2. The settings on record: response relative to ADIFAB2. It counts as binding. The gist of the method: as §1
On to B1, for which the “DR/DR POA” value was determined as 1.093.
Still for that read-out and setting: in the case of B2 it was 2.771.
On the same count and under the same terms, as for B3, the figure is 2.034; as for B4, 1.290; as for B5, 2.320.
On to B6, for which the “DR/DR POA” value came to 0.801.
On to B7, for which the “DR/DR POA” value came out at 1.145.
Same read-out and setting: in the case of B8 it was 1.536.
Still for that read-out and setting: in the case of B9 it was 1.353.
Still for that read-out and setting: in the case of B10 it was 2.471; in that of B11, 2.639; in that of B12, 2.087.
As for B13, the “DR/DR POA” value is 1.569.
On the same count and under the same terms, as for B14, the figure is 2.727; as for B15, 1.563.
B16: the “DR/DR POA” value worked out at 2.637.

The nature of a further test: Probe fluorescence ratio response to arachidonic acid relative to ADIFAB2. It counts as binding. The settings on record: arachidonic acid; response relative to ADIFAB2. The gist of the method: as §1
For the molecule B1, the “DR/DR AA” value is 0.478.
On the same count and under the same terms, in the case of B2 it was 2.226; in that of B3, 1.648.
Still for that read-out and setting: as for B4, the figure is 1.241.
Same read-out and setting: in the case of B5 it was 2.148; in that of B6, 1.029; in that of B7, 2.007.
Take B8: the “DR/DR AA” value was 1.614.
For the molecule B9, the “DR/DR AA” value was found to be 1.010.
Still for that read-out and setting: as for B10, the figure is 2.035; as for B11, 2.205.
The same measure, in the same setting: in the case of B12 it was 1.975; in that of B13, 2.032; in that of B14, 2.127.
The same measure, in the same setting: in the case of B15 it was 0.989; in that of B16, 1.796.

The nature of another test: Probe fluorescence ratio response to stearic acid relative to ADIFAB2. It counts as binding. The settings on record: response relative to ADIFAB2. The gist of the method: as §1
On to B1, for which the “DR/DR SA” value was 0.234.
Same read-out and setting: as for B2, the figure is 1.755; as for B3, 1.114.
With B4, the “DR/DR SA” value turned out to be 0.378.
As for B5, the “DR/DR SA” value is recorded as 1.359.
Same read-out and setting: as for B6, the figure is 0.213; as for B7, 0.947.
Still for that read-out and setting: in the case of B8 it was 1.299; in that of B9, 0.296; in that of B10, 1.779.
On the same count and under the same terms, in the case of B11 it was 0.994.
On to B12, for which the “DR/DR SA” value turned out to be 1.512.
Same read-out and setting: in the case of B13 it was 0.487; in that of B14, 1.572; in that of B15, 0.420.
For the molecule B16, the “DR/DR SA” value is 0.860.

A further test in a line: Probe fluorescence ratio response to linolenic acid relative to ADIFAB2. It counts as binding. The settings on record: response relative to ADIFAB2. The gist of the method:
as §1
Turning to B1, the “DR/DR LNA” value amounted to 0.784.
Still for that read-out and setting: in the case of B2 it was 2.317.
Still for that read-out and setting: in the case of B3 it was 2.002; in that of B4, 2.296; in that of B5, 1.944.
The same measure, in the same setting: in the case of B6 it was 1.790; in that of B7, 1.796; in that of B8, 1.701.
Consider B9, for which the “DR/DR LNA” value was determined as 1.358.
Same read-out and setting: in the case of B10 it was 2.621.
On the same count and under the same terms, in the case of B11 it was 2.813.
Regarding B12, the “DR/DR LNA” value was determined as 1.863.
Same read-out and setting: in the case of B13 it was 1.869; in that of B14, 2.330; in that of B15, 1.580.
On the same count and under the same terms, in the case of B16 it was 2.706.

Source of the values: US20060257938A1, “Method of screening for drugs that block ligand binding to a lipid binding protein” (priority 2005, published 2006).
